Reference: publication PMC12070368 (ACS Applied Nano Materials, 2025)

Molecular target: T1, Ebolavirus glycoprotein (EGP) of the Zaire strain (Zaire ebolavirus, UniProt Q05320 33-650)
T1 sequence: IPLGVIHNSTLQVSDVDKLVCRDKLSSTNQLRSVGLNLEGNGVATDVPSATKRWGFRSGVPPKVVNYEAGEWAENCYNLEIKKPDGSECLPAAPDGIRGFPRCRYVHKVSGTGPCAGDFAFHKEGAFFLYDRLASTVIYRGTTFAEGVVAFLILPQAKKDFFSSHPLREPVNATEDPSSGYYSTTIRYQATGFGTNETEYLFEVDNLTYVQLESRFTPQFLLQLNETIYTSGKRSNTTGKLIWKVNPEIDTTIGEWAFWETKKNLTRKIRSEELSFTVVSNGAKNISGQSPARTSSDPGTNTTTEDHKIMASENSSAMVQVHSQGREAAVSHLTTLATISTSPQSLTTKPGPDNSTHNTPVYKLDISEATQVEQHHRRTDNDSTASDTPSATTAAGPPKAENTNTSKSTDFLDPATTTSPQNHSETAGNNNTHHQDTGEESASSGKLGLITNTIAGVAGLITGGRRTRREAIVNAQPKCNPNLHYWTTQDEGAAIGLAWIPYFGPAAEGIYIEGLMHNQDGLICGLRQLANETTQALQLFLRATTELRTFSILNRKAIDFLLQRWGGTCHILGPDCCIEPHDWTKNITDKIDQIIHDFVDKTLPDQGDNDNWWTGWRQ
Conditions: both partners purified

B1: TIM-1 (receptor, UniProt Q96D42 21-295, looked up)
chain: SVKVGGEAGPSVTLPCHYSGAVTSMCWNRGSCSLFTCQNGIVWTNGTHVTYRKDTRYKLLGDLSRRDVSLTIENTAVSDSGVYCCRVEHRGWFNDMKITVSLEIVPPKVTTTPIVTTVPTVTTVRTSTTVPTTTTVPMTTVPTTTVPTTMSIPTTTTVLTTMTVSTTTSVPTTTSIPTTTSVPVTTTVSTFVPPMPLPRQNHEPVATSPSSPQPAETHPTTLQGAIRREPTSSPLYSYTTDGNDTVTESSDGLWNNNQTQLFLEHSLLTANTTKG
ΔSPR: 35 nm
